Measurements taken from the RNAGym collection of RNA variant scans (doi:10.1073/pnas.2313332121).

B1: TPR t1 (parent)
chain: GACCAAUCUGCCCUCAGAGCUCGAGAACAUCUUCGGAUGCAGAGGAGGCAGGCUUCGGUGGCGCGAUAGCGCCAACGUCCUCAACCUCCAAUGCAUCCCACCACAUGAUGAUGCCUGAAGAGCCUUGGUUUUUUG

Variants of: B1
Test: polymerase ribozyme fitness, log enrichment relative to wild type (log ratio); higher = more active; in vitro selection for triplet polymerase activity
In short: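 The heterodimeric triplet polymerase ribozyme's subunits were each mutagenized into PCR-built libraries and transcribed. Every library was selected once, in triplicate, by annealing with a biotinylated primer, the partner subunit and triplets, incubating frozen at −7 °C, gel-excising extended constructs, capturing on streptavidin beads and running RT-PCR. Input and output libraries were Illumina-sequenced, with genotypes kept only at ≥10 input reads and ≥1 read per output. Fitness, from inverse-variance-weighted replicate averages, is the base-2 logarithm of genotype enrichment over wild-type enrichment.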

Point of comparison: GACCAAUCCGCCCUCAGAGCUCGAGAACAUCUUCGGAUGCAGAGGAGGCAGGCUUCGGUGGCGCGAUAGCGCCAACGUCCUCAACCUCCAAUGCAUCCCACCACAUGAUGAUAGCUGAAGAGCCUUGGUUUUUUG, “polymerase ribozyme fitness (log ratio)” value -0.741. Against it:
- GACCAAUCCGCCCUCAGAGCUCGAGAACAUCUUCGGAUGCAGAGGACGCAGGCUUCGGUGGCGCGAUAGCUCCAACGUCCUCAACCUCCAAUGCAUCCCACCACAUGAUGAUGCCUGAAGAGCCUUGGUUUCUUG — lower, -2.26
- GACCAAUCCGCCCUCAGAGCUCGAGAACAUCUUCGCAUGCAGAGGAGGCUGGCUUCGGUGGCGCGAUAGAGCCAUCGUCCUCAACCUCCAAUGCAUCCCACCACAAGAUGAUGCCUGAAGAGCCUUGGUUUUUUG — lower, -6.28
- GACCAAUCCGCCCUCAGAGCUCGAGAACAUCUUCGGAUGCAGAGGAGGCAGGCUUCGGUAGCGCGAUAGCGCCAACGUCCUCAACCUCCAAUGCAUCCCACGACAUGAUCAUGCCUGAAGAGCCUUGUUUUUUUG — lower, -7.66
- GACCAAUCCGCCCUCAGAGCUCGAGAACAUCUUCGGAUGCAGAGGAGGCAGGCUUCGGUUGCGCGAUAGCGCCAACGUCCUUAACCUCCAAUGCACCCCACCACAUGAUGAUGCCUGAAGAGCCUUGGUUUUUUG — higher, 0.305
- GACCAAUCCGCCCGCAGAGCUCGAGAACAUCUUCGGAUGCAGAGGAGGCAGGCUUCGGUGGCGCGAUAGCGCCAACGUCGUCAACCUCCAAUGCAUCCCACCACAUGAUGAUGCCUGAAGAGCCUUGGUUUUUUG — lower, -6.05
- GACCAAUCCGCCCUCAGAGCUCGAGAACAUCUUCGGAUGCAGAGGAGGCAGGCUGCGGUGGCGCGAUAACGCCAACGUCCUCAACCUCCAAUGCAUCCCACCACAUGAUGAUGCCUGAAGAGCCUUGGUUUUUUG — lower, -1.8
- GACCAAUCCGCCCUCAGAGCUCGAGAACAUCUUCGGAUGCAGAGGAGGCAGGCUUCGGUGGCGCGAUAGCGCCAACGGCCUCAACCUCCAAUGCAUCCCACCUCAUGAUGAUGCCUGAAGAGCCUUGGUUUUUUG — lower, -5.95
- GACCAAUCCGCCCUCAGAGCUCGAGAACAUCUUCGGAUGCAGAGGAGGCAGGCUUCGGUGACGCGAUAGCGCCAACGUCCUCAACCUCUAAUGCAUCCCACCACCUGAUGAUGCCUGAAGAGCCUUGGUUUUUUG — lower, -3.08
- GACCAAUCCGCCCUCAGAGCUCGAGAACAUCUUCGGAUGCAAAGGAGGCAGGCUUCGGUGGCGCGAUAGCGCCAACGUCCUCAACCUCCAAUGCAUCCCACCACAUGAUGAUGCCUGAAGAGCCUUGGUUUUUUG — lower, -1.15
- GACCAAUCCGCCCUCAGAGCUCGAGAACAUCUUCGUAUGCAGAGGAGGCAGGCUUCGGUGGCCCGAUAGCGCCAACGUCCUCAACCUCCAAUGCAUCCCACCACAUGAUGACGCCUGAAGAGCCUUGCUUUUUUG — lower, -1.66
- GACCAAUCCGCCCUCAGAGCUCGAGAACAUCUUCGGAUGCAGAGGAGGCAGGCUUCGGUUGCGCGAUAGCGCCAACGUCCUCAACCUCCAAUGCAUCCCACCACAUGAUGAUGCCUGAAGAGCCUUGGUUUUUUG — higher, 0.0949
- GACCAAUCCGCCCUCAGAGCUCGAGAACAUCUUCGGAUGCAGAGGAGGCAGGCUUCGGUGGCGCGAUAGCGCCAACGUCCCCAACCUCCAAUGCAUCACACCACAUGAUGAUGCCUGAAGAGCCUUGGUUUUUUG — lower, -5.87
- GACCAAUCCGCCCUCAGAGCUCGAGAACAUCUUCGGAUACAGAGGAGGCAGGCUUCGGUGGCUCGAUAGCGCCAACGUCCUCAACCUCCAAUGCAUCCCACCACAUGAUGAUGCCUGAAGAGCCUUGGUUUUUUG — lower, -1.02
- GACCAAUCCACCCUCAGAGCUCGAGAACAUCUUCGGAUGCAGAGGAGGCAGACUUCGGUGGCUCGAUAGCGCCAACGUCCUCAACCUCCAAUGCAUCCCACCACAUGAUGAUGCCUGAAGAGCCUUGGUUUUUUG — lower, -2.31
- GACCAAUCCGCCCUCAGAGCUCGAGAACAUCUUCUGAUGCAGAGGAGGCUGGCUUCGGUGGCGCGAUAGCGCCAACGUCCUCAACCUCCAAUGCAUCCCACCACAUGAUGAUGCCUGAAGAGCCUUGGUUUUUUG — lower, -6.01
- GACCAAUCCGCCCUCAGAGCUCGAGAACAUCUUCGGAUGCAGAGGAGGCAGGCUUCGGUAGCGCGAUAGCGCCAACGUCUUCAACCUCUAAUGCAUCCCACCACAUGAUGAUGCCUGAAGAGCCUUGGUUUUUUG — lower, -1.82
- GACCAAUCCGCCCUCAGAGCUCGAGAACAUCUUCGGAUGCAGAGGAGUCAGGCUUCGGUGGCGCGAUAGCGCCAACGUCCUCAACCUCCAAUGCAUCCCACCACAUGAUGAUGCCUGAAGAGUCUUGGUUUUUUG — higher, 1.12
- GACCAAUCCGCCCUCAGAGCUCGAGAACAUCUUCGGAUGCAGAGGACGCAGGCUUCGGUGGCGCGAUAGCUCCAACGUCCUCAACCUCCAAUGCAUCCCACCACAUGAUGAUGCCUGAAGAGCCUUGGUUUUUUG — lower, -2.13
- GACCAAUCCGCCCUCAGAGCUCGAGAACAUCUUCGUAUGCAGAGGAGGCAGGCUUCGGUGGCACGAUAGCGCCAACGUCCUCAACCUCCAAUGCAUCCCACCACAUGAUGAUGCCUGAAGAGCCUUGGUUUUUUG — lower, -1.4
- GACCAAUCCGCCCUCAGAGCUCGAGAACAUCUUCGGAUGCAGAGGAGGCAGGCUUCGGUGGCGCGAUAUCGCCAACGUCCUCUACCUCCAAUGCAUCCCACCACAUGAUGAUGCCUGAAGAGCCUUGGUUUUUUG — higher, -0.05
- GACCAAUCCGCCCUCAGAGCUCGAGAACAUCUUCGGAUGCAGAGAAGUCAGGCUUCGGUGGCGCGAUAGCGCCAACGUCCUCAACCUCCAAUGCAUCCCACCACAUGAUGAUGCCUGAAGAGCCUUGGUUUUUUG — higher, -0.16
- GACCAAUCCGCCCUCAGAGCUCGAGAACAUCUUCGGAUGCAGAGGAGGCAUGCUUCGGUGCCGCGAUAGCGCCAACGUCCUCAACCUCCAAUGCAUACCACCACAUGAUGAUGCCUGAAAAGCCUUGGUCUUUUG — lower, -4.88
- GACCAAUCCCCCCUCAGAGCUCGAGAACAUCUUCGGAUGCAGAGGAGGCAGGCUUCGGUGGGGCGAUAGCGACAACGUCCUCAACCUCCAAUGCAUCCCACCACAUGAUGGUGCCUGAAGAGCCCUGGUUUUUUG — lower, -4.6
- GACCAAUCCGCCCUCAGAGCUCGAGAACAUCUUCGGAUGCAGAGCAGACAGGCUUCGGUGGCGCGAUAGCGCCAACGUCCUCAACCUCCCAUGCAUCCCACCACAUGAUGAUGCCUGAAGAGCCUUGGUUUUUUG — within 0.2 log units, -0.81
- GACCAAUCCGCCCUCAGAGCUCGAGAACAUCUUCGGAUGCAGAUGAGGCAGGCUUCGGUGGCACGAUAGCGCCAACGUCCUCAACCUCGAAUGCAUCCCACCACAUGAAGAUGCCUGAAGAGCCUUGGUUUUUUG — lower, -7.22
- GACCAAUCCGCCCUCAGAGCUCGAGAACAUCUUCGGAUGCAGAGGAGGCAGGCUUCGGUGGCCCGAUAGCGCCAACGUCCUCAACCUCCAAUGCAGACCACCACAUGAUGAUGCCUGAAGAGACUUGGUUUUUUG — lower, -3.72
- GACCAAUCCGCCCUCAGAGCUCGAGAACAUCUUCGGAUGCAGAGGAGGCAGGCUUCGGUGGCGCGAUAUCGCCAACGUCCUCAACCUCCAAUGCAUCCCACCACAUGAUGAUGCCUGAAGAGCCUUGGUGUUUUG — higher, 0.198
- GACCAAUCCGCCCUCAGAGCUCGAGAACAUCUUCGGAUGCAGAGGAGGCAGGCUUCGGUGGCGCGAUAGCGCCAACGUCCUCAACCUCCAAUGCAUCCCACCACAUUAUGAAGCCUGAGGAGCCUUGGUUUUUUG — lower, -4.69
- GACCAAUCCGCCCUCAGAGCUCGAGAACAUCUUCGUAUGCAGAGGAUGCAGGCUUCGGUGGCGCGAUAGCGCCAACGUCCUCAACCUCCAAUGCAUCCCACCACAUGAUGAUGCCUGAAGAGCCUUGGUUUUUUG — lower, -2.03
- GACCAAUCCGCCCUCAGAGCUCGAGAACAUCUUCGGAUGCAGAGGAGGCAGGCUUCGGUGGCGCGAUAUCGGCAACGUCCUCAACCUCCAAUGCAUCCCACCACAUGAUGAUGCCUGAAGAGCCUUGGUUUUUUG — lower, -1.2
- GACCAAUCCGCCCUCAGAGCUCGAGAACAUCUUCUGAUGCAGAGGAGGCAGGCUUCGGUGGCGCGAUAGCGCCAACGUCCUCAACCUCCAAUGCAUCCCAACACAUGAUGAUGCCUGAAGAGCCUUGGUUUUUUG — lower, -5.93
- GACCAAUCCGCCCUCAGAGCUCGAGAACAUCUUCGGAUGCAGAGGAGGCAGGCUUCGGUGACGCGAUAGCGCCAACGUCCUCAACCUCCAAUGCAUCCCACCACAUGAUGAUGCCUGAAGAGCCUUGGUUUUUUG — higher, 0.487
- GACCAAUCCGCCCACAGAGCUCGAGAACAUCUUCGCAUGCAGAGGAGGCAGGCUUCGGUGGCGCGAUAGCGCCAACGUCCUCAACCUCCAAUGCAUCCCACCACAUGAUGAUGCCUGAAGAGCCUUGGUUUUUUG — lower, -1.95
- GACCAAUCCGCCCUCAGAGCUCGAGAACAUCUUCGGAUGCAGAGGAGGCAGGCUUCGGUGGCGCGAUAACGCCAACGUCCUCAACCUCCAAUGCAUCCCACCACAUGAUGAUGCCUGAAGAGCCUUGGUUUUUUG — lower, -2.17
- GACCAAUCCGCCCUCAGAGCUCGAGAACAUCUUCGGAUGCAGAGGAGGCAGGCUUCGGUGGCGCGAUAUCGCCAACGUCCUCAACCUCCAAUGCAUCCCACCACAUGAUGAUGCCUGAAGAGCCUUGGUUUUUUG — higher, 1.23
- GACCAAUCCGCCCUCAUAGCUCGAGAACAUCUUCGGAUGCAGAGGAGGCAGGCCUCGGUGGCGCGAUAGCGCCAACGUACUCAACCUCCAAUGCAUCUCAACACAUGAUGAUGCCUGAAGAGCCUUGGUUUUUUG — lower, -5.9
- GACCAAUCCGCCCUCAGAGCUCGAGAACAUCUUCGGAUGCAGAGGAGGCAGGCUUCGGUGGCGCGAUAUCGCCAACGGCCUCAACCUCCAAUGCAUCCCACCUCAUGAUGAUGCCUGAAGAGCCUUGGUUUUUUG — lower, -1.88
- GACCAAUCCGCCCUCAGAGCUCGAGAACAUCUUCGGAUGCAGAGCAGGCAGGCUUCGGUGGCGCGAUAGCGCCAACGUCCUCAACCUCCAAUGCAUCCCACCACAUGAUGAUGCCUGAAGAGCCUUGGUUGUUUG — lower, -1.16
- GACCAAUCCGCCCUCAGAGCUCGAGAACAUCUUCGGAUGCAGAGGAGGCAGGCUUCGGUGGCACGAUAGCGCCCACGUCCUCAACCUCAAAUGCAUCCCACCAAAUGAUGACGCCUGAAGAGCCUUGGUUUUUUG — lower, -5.39
- GACCAAUCCGCCCUCAGAGCUCGAGAACAUCUUCGGAUGCAGAGGAGGCAGGCUUCGCUGGCGCGAUAGCGCCAACGUCCUCAACCUCCAAUGCAUCCCACCACAUGAUGAUGACUGAAGAGCCUUUGUUUUUUG — lower, -3.7
- GACCAAUCCGCCCUCAUAGCUCGAGAACAUCUUCGGAUGCAGAGGAGGCAGGCUUCGGUGGCGCGAUAGCGGCAACGUCCUCCACCUCCAAUGCAUCCCACCACAUGAUGAUGCCUGAAGAGCCUUGGUUUUUUG — lower, -1.63
